Common to all, as to conditions: both partners purified
One assay addresses T1, p97 wild type (1-806) (UniProt P55072 1-806).
T1 construct: p97/VCP, residues 1-806; also called p97-wt; p97-fl; source: E. coli BL21 DE3 (T1r), purified (Ni-NTA, anion exchange)
Description: fluorescence polarisation; displacement titration: UBXD1 incubated with 0.1 µM 5,6-FAM-p97-C10 peptide to 50% saturation, concentration of p97 successively increased; competitive binding model; 50 mM NaKPi buffer, pH 7.5, 25 °C. On the technique in general: Polarisation of emitted light reports the rotation of a fluorescent probe.

For a further assay, the target named is T2, p97-wt (1–806) (UniProt P55072 1-806).
T2 construct: p97/VCP, residues 1-806; also called VCP; p97-fl; source: E. coli BL21 DE3 (T1r), purified (Ni-NTA, anion exchange)
Description: fluorescence polarisation; fluorescence anisotropy; Atto594-labeled UBXD1 proteins, p97 constructs titrated; 50 mM NaKPi pH 7.5, 25 °C; all fitted with stoichiometry n = 1.

The next assay concerns the target T3, p97-ΔC (1–766) (UniProt P55072 1-766).
T3 construct: p97/VCP, residues 1-766; source: E. coli BL21 DE3 (T1r), purified (Ni-NTA, anion exchange)
The assay is described as above.

The next assay has as its target T4, p97-ΔD2-C (1–480) (UniProt P55072 1-480).
T4 construct: p97/VCP, residues 1-480; The pull-down methods give the concentration of the p97 variant as hexamer; also called ND1L; source: E. coli BL21 DE3 (T1r), purified (Ni-NTA, anion exchange)
Described as above.

A further assay addresses T5, Ubiquitin-GST (UniProt P0CG48 1-76).
T5 construct: ubiquitin fused at its C-terminus to GST; also called Ub-GST; source: E. coli BL21 DE3 (T1r), purified; not shown: GST, C-terminal, kept
Description: pull-down; screening pulldown: 25 µM Ubiquitin-GST, 1 µM p97 (hexamer) and UBXD1 variant with GSH beads, 30 min, 4 °C, IP buffer; Coomassie stain.

Assay [1] concerns the target T6, ubiquitin-GST fusion protein (Ub-GST) (UniProt P0CG48 1-76).
T6 construct: source: E. coli BL21 DE3 (T1r), purified
Description: pull-down; screen: 25 μM ubiquitin-GST, 1 μM p97 (hexamer) and equal amounts of UBXD1 variant (released from GSH beads by PreScission) with GSH beads, 30 min, 4 °C, IP buffer.

The values below come from publication PMC10241913 (Nature Communications, 2023).

T3 sequence (P55072 1-766, stated change not applied): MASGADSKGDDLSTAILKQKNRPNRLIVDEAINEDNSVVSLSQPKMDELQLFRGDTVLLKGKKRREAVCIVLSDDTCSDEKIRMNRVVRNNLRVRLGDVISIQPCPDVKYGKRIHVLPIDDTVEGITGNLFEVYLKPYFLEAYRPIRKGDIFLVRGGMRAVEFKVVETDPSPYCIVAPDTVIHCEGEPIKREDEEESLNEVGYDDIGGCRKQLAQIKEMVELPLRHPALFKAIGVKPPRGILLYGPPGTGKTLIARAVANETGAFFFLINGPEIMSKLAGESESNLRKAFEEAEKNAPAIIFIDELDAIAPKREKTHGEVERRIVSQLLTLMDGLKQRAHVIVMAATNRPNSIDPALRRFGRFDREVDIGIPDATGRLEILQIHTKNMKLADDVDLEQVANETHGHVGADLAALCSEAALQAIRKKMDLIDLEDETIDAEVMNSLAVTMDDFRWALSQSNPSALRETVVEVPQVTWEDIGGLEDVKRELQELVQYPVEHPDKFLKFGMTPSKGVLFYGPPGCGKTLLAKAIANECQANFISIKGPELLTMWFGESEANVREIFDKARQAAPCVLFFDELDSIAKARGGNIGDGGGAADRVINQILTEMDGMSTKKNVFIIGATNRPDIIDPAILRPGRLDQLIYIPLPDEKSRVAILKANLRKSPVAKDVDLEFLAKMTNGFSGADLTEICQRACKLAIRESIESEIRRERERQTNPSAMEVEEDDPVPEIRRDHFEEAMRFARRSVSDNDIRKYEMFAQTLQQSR
T2 sequence (P55072 whole entry, the tested form may be a part): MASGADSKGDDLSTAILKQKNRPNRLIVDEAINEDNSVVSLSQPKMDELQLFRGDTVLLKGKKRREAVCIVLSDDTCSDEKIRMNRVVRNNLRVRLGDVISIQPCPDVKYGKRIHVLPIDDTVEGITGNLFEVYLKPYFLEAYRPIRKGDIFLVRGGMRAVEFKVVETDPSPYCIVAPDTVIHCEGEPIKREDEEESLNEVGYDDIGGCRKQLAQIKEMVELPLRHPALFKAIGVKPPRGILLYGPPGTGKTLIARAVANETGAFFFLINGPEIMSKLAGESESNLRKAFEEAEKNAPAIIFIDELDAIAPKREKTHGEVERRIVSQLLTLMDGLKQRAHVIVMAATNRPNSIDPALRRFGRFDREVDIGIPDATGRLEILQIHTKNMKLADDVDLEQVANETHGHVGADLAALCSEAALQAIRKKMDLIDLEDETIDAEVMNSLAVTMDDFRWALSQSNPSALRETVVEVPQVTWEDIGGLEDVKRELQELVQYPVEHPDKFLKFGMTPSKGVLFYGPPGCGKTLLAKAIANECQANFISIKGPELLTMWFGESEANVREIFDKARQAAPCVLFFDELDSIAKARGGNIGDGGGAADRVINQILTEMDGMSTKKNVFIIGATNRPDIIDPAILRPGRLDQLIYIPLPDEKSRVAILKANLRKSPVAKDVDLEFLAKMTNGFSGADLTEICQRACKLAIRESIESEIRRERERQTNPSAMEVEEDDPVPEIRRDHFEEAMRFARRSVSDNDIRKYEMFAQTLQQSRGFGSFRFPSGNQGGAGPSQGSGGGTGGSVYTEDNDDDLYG
T4 sequence (P55072 1-480, stated change not applied): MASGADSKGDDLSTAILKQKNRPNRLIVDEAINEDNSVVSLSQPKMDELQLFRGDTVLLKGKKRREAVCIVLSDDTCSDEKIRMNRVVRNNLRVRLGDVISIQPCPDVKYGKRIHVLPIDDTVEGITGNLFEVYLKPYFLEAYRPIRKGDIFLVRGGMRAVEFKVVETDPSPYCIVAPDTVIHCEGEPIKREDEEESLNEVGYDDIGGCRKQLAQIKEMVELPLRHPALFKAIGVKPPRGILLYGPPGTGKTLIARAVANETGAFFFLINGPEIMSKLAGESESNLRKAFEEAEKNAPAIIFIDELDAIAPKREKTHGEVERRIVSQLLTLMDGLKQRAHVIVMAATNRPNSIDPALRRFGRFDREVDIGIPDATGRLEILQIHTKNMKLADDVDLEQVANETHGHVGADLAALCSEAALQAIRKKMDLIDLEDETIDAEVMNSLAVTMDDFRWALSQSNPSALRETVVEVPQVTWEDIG
T1 sequence (P55072 whole entry, the tested form may be a part): as the sequence (P55072 whole entry, the tested form may be a part) above

B1: UBXD1-wt (1-441) (natural protein, human, UniProt Q9BZV1 1-441, looked up)
chain: MKKFFQEFKADIKFKSAGPGQKLKESVGEKAHKEKPNQPAPRPPRQGPTNEAQMAAAAALARLEQKQSRAWGPTSQDTIRNQVRKELQAEATVSGSPEAPGTNVVSEPREEGSAHLAVPGVYFTCPLTGATLRKDQRDACIKEAILLHFSTDPVAASIMKIYTFNKDQDRVKLGVDTIAKYLDNIHLHPEEEKYRKIKLQNKVFQERINCLEGTHEFFEAIGFQKVLLPAQDQEDPEEFYVLSETTLAQPQSLERHKEQLLAAEPVRAKLDRQRRVFQPSPLASQFELPGDFFNLTAEEIKREQRLRSEAVERLSVLRTKAMREKEEQRGLRKYNYTLLRVRLPDGCLLQGTFYARERLGAVYGFVREALQSDWLPFELLASGGQKLSEDENLALNECGLVPSALLTFSWDMAVLEDIKAAGAEPDSILKPELLSAIEKLL
notes: also called UBXD1-fl; UBXN6; not shown: GST, N-terminal, cleaved
In general, Kd refers to the equilibrium constant for the complex coming apart. Low readings indicate higher affinity, high ones lower affinity. B1 showed a Kd with p97 wild type (1-806) of 1.1 ± 0.1 µM.

B2: UBXD1-wt (1–441), Atto594-labeled for fluorescence anisotropy with p97 (natural protein, human, UniProt Q9BZV1 1-441, looked up)
chain: MKKFFQEFKADIKFKSAGPGQKLKESVGEKAHKEKPNQPAPRPPRQGPTNEAQMAAAAALARLEQKQSRAWGPTSQDTIRNQVRKELQAEATVSGSPEAPGTNVVSEPREEGSAHLAVPGVYFTCPLTGATLRKDQRDACIKEAILLHFSTDPVAASIMKIYTFNKDQDRVKLGVDTIAKYLDNIHLHPEEEKYRKIKLQNKVFQERINCLEGTHEFFEAIGFQKVLLPAQDQEDPEEFYVLSETTLAQPQSLERHKEQLLAAEPVRAKLDRQRRVFQPSPLASQFELPGDFFNLTAEEIKREQRLRSEAVERLSVLRTKAMREKEEQRGLRKYNYTLLRVRLPDGCLLQGTFYARERLGAVYGFVREALQSDWLPFELLASGGQKLSEDENLALNECGLVPSALLTFSWDMAVLEDIKAAGAEPDSILKPELLSAIEKLL
modifications: Atto594 (NHS ester, ratio 1:1.2)
notes: not shown: GST, N-terminal, cleaved
Take B2: the Kd with p97-wt (1–806) amounted to 1.64 µM; in the assay with p97-ΔC (1–766), 11.9 ± 0.2 µM.

B3: UBXD1-VIMx (1–441, DI11/12AA, RL62/63AA) (natural protein, human, UniProt Q9BZV1 1-441, looked up)
chain: MKKFFQEFKAAAKFKSAGPGQKLKESVGEKAHKEKPNQPAPRPPRQGPTNEAQMAAAAALAAAEQKQSRAWGPTSQDTIRNQVRKELQAEATVSGSPEAPGTNVVSEPREEGSAHLAVPGVYFTCPLTGATLRKDQRDACIKEAILLHFSTDPVAASIMKIYTFNKDQDRVKLGVDTIAKYLDNIHLHPEEEKYRKIKLQNKVFQERINCLEGTHEFFEAIGFQKVLLPAQDQEDPEEFYVLSETTLAQPQSLERHKEQLLAAEPVRAKLDRQRRVFQPSPLASQFELPGDFFNLTAEEIKREQRLRSEAVERLSVLRTKAMREKEEQRGLRKYNYTLLRVRLPDGCLLQGTFYARERLGAVYGFVREALQSDWLPFELLASGGQKLSEDENLALNECGLVPSALLTFSWDMAVLEDIKAAGAEPDSILKPELLSAIEKLL
modifications: Atto594 (NHS ester; the UBXD1 proteins were labeled for anisotropy)
notes: also called UBXD1-VIMx mutant; not shown: GST, N-terminal, cleaved
Turning to B3, the Kd with p97-ΔC (1–766) amounted to 87 ± 1 µM; in the assay with p97-ΔD2-C (1–480), 466 ± 9 µM.

B4: UBXD1-His E368A/D373A (natural protein, human, UniProt Q9BZV1 1-441, looked up)
chain: MKKFFQEFKADIKFKSAGPGQKLKESVGEKAHKEKPNQPAPRPPRQGPTNEAQMAAAAALARLEQKQSRAWGPTSQDTIRNQVRKELQAEATVSGSPEAPGTNVVSEPREEGSAHLAVPGVYFTCPLTGATLRKDQRDACIKEAILLHFSTDPVAASIMKIYTFNKDQDRVKLGVDTIAKYLDNIHLHPEEEKYRKIKLQNKVFQERINCLEGTHEFFEAIGFQKVLLPAQDQEDPEEFYVLSETTLAQPQSLERHKEQLLAAEPVRAKLDRQRRVFQPSPLASQFELPGDFFNLTAEEIKREQRLRSEAVERLSVLRTKAMREKEEQRGLRKYNYTLLRVRLPDGCLLQGTFYARERLGAVYGFVRAALQSAWLPFELLASGGQKLSEDENLALNECGLVPSALLTFSWDMAVLEDIKAAGAEPDSILKPELLSAIEKLL
notes: the mutant's name is printed in four ways; not shown: GST, N-terminal, cleaved
For the molecule B4, the binding result with Ubiquitin-GST is “binds”.

B5: UBXD1 R274A (full length, recombinant) (natural protein, human, UniProt Q9BZV1 1-441, looked up)
chain: MKKFFQEFKADIKFKSAGPGQKLKESVGEKAHKEKPNQPAPRPPRQGPTNEAQMAAAAALARLEQKQSRAWGPTSQDTIRNQVRKELQAEATVSGSPEAPGTNVVSEPREEGSAHLAVPGVYFTCPLTGATLRKDQRDACIKEAILLHFSTDPVAASIMKIYTFNKDQDRVKLGVDTIAKYLDNIHLHPEEEKYRKIKLQNKVFQERINCLEGTHEFFEAIGFQKVLLPAQDQEDPEEFYVLSETTLAQPQSLERHKEQLLAAEPVRAKLDRQARVFQPSPLASQFELPGDFFNLTAEEIKREQRLRSEAVERLSVLRTKAMREKEEQRGLRKYNYTLLRVRLPDGCLLQGTFYARERLGAVYGFVREALQSDWLPFELLASGGQKLSEDENLALNECGLVPSALLTFSWDMAVLEDIKAAGAEPDSILKPELLSAIEKLL
notes: UBXD1 (UBXN6), human, mutant in the context of recombinant UBXD1-fl
As to B5, in assay [1], the binding result is listed as “binds”.

B6: UBXD1 R307A (full length, recombinant) (natural protein, human, UniProt Q9BZV1 1-441, looked up)
chain: MKKFFQEFKADIKFKSAGPGQKLKESVGEKAHKEKPNQPAPRPPRQGPTNEAQMAAAAALARLEQKQSRAWGPTSQDTIRNQVRKELQAEATVSGSPEAPGTNVVSEPREEGSAHLAVPGVYFTCPLTGATLRKDQRDACIKEAILLHFSTDPVAASIMKIYTFNKDQDRVKLGVDTIAKYLDNIHLHPEEEKYRKIKLQNKVFQERINCLEGTHEFFEAIGFQKVLLPAQDQEDPEEFYVLSETTLAQPQSLERHKEQLLAAEPVRAKLDRQRRVFQPSPLASQFELPGDFFNLTAEEIKREQRLASEAVERLSVLRTKAMREKEEQRGLRKYNYTLLRVRLPDGCLLQGTFYARERLGAVYGFVREALQSDWLPFELLASGGQKLSEDENLALNECGLVPSALLTFSWDMAVLEDIKAAGAEPDSILKPELLSAIEKLL
notes: as for B5
On to B6, for which, in assay [1], the binding result was “binds”.

B7: UBXD1 R305A/R307A/V316A (full length, recombinant) (natural protein, human, UniProt Q9BZV1 1-441, looked up)
chain: MKKFFQEFKADIKFKSAGPGQKLKESVGEKAHKEKPNQPAPRPPRQGPTNEAQMAAAAALARLEQKQSRAWGPTSQDTIRNQVRKELQAEATVSGSPEAPGTNVVSEPREEGSAHLAVPGVYFTCPLTGATLRKDQRDACIKEAILLHFSTDPVAASIMKIYTFNKDQDRVKLGVDTIAKYLDNIHLHPEEEKYRKIKLQNKVFQERINCLEGTHEFFEAIGFQKVLLPAQDQEDPEEFYVLSETTLAQPQSLERHKEQLLAAEPVRAKLDRQRRVFQPSPLASQFELPGDFFNLTAEEIKREQALASEAVERLSALRTKAMREKEEQRGLRKYNYTLLRVRLPDGCLLQGTFYARERLGAVYGFVREALQSDWLPFELLASGGQKLSEDENLALNECGLVPSALLTFSWDMAVLEDIKAAGAEPDSILKPELLSAIEKLL
notes: as for B5
For B7, in assay [1], the binding result is “binds”.

B8: UBXD1 Q278A/F286A/L288A (full length, recombinant) (natural protein, human, UniProt Q9BZV1 1-441, looked up)
chain: MKKFFQEFKADIKFKSAGPGQKLKESVGEKAHKEKPNQPAPRPPRQGPTNEAQMAAAAALARLEQKQSRAWGPTSQDTIRNQVRKELQAEATVSGSPEAPGTNVVSEPREEGSAHLAVPGVYFTCPLTGATLRKDQRDACIKEAILLHFSTDPVAASIMKIYTFNKDQDRVKLGVDTIAKYLDNIHLHPEEEKYRKIKLQNKVFQERINCLEGTHEFFEAIGFQKVLLPAQDQEDPEEFYVLSETTLAQPQSLERHKEQLLAAEPVRAKLDRQRRVFAPSPLASQAEAPGDFFNLTAEEIKREQRLRSEAVERLSVLRTKAMREKEEQRGLRKYNYTLLRVRLPDGCLLQGTFYARERLGAVYGFVREALQSDWLPFELLASGGQKLSEDENLALNECGLVPSALLTFSWDMAVLEDIKAAGAEPDSILKPELLSAIEKLL
notes: as for B5
With B8, the binding result in assay [1] was “binds”.

B9: UBXD1 R305A (full length, recombinant) (natural protein, human, UniProt Q9BZV1 1-441, looked up)
chain: MKKFFQEFKADIKFKSAGPGQKLKESVGEKAHKEKPNQPAPRPPRQGPTNEAQMAAAAALARLEQKQSRAWGPTSQDTIRNQVRKELQAEATVSGSPEAPGTNVVSEPREEGSAHLAVPGVYFTCPLTGATLRKDQRDACIKEAILLHFSTDPVAASIMKIYTFNKDQDRVKLGVDTIAKYLDNIHLHPEEEKYRKIKLQNKVFQERINCLEGTHEFFEAIGFQKVLLPAQDQEDPEEFYVLSETTLAQPQSLERHKEQLLAAEPVRAKLDRQRRVFQPSPLASQFELPGDFFNLTAEEIKREQALRSEAVERLSVLRTKAMREKEEQRGLRKYNYTLLRVRLPDGCLLQGTFYARERLGAVYGFVREALQSDWLPFELLASGGQKLSEDENLALNECGLVPSALLTFSWDMAVLEDIKAAGAEPDSILKPELLSAIEKLL
notes: as for B5
Consider B9, for which the binding result in assay [1] is given as “binds”.

B10: UBXD1-eUBX-C (269–441), for fluorescence anisotropy (domain or fragment, human, UniProt Q9BZV1 269-441, looked up)
chain: KLDRQRRVFQPSPLASQFELPGDFFNLTAEEIKREQRLRSEAVERLSVLRTKAMREKEEQRGLRKYNYTLLRVRLPDGCLLQGTFYARERLGAVYGFVREALQSDWLPFELLASGGQKLSEDENLALNECGLVPSALLTFSWDMAVLEDIKAAGAEPDSILKPELLSAIEKLL
modifications: Atto594 (NHS ester; the UBXD1 proteins were labeled for anisotropy)
notes: also called eUBX-C domain; not shown: GST, N-terminal, cleaved
B10 had a Kd in the assay with p97-wt (1–806) of 131 ± 14 µM.

B11: UBXD1-ΔUBX-C (1–332), recombinant, for fluorescence anisotropy (domain or fragment, human, UniProt Q9BZV1 1-332, looked up)
chain: MKKFFQEFKADIKFKSAGPGQKLKESVGEKAHKEKPNQPAPRPPRQGPTNEAQMAAAAALARLEQKQSRAWGPTSQDTIRNQVRKELQAEATVSGSPEAPGTNVVSEPREEGSAHLAVPGVYFTCPLTGATLRKDQRDACIKEAILLHFSTDPVAASIMKIYTFNKDQDRVKLGVDTIAKYLDNIHLHPEEEKYRKIKLQNKVFQERINCLEGTHEFFEAIGFQKVLLPAQDQEDPEEFYVLSETTLAQPQSLERHKEQLLAAEPVRAKLDRQRRVFQPSPLASQFELPGDFFNLTAEEIKREQRLRSEAVERLSVLRTKAMREKEEQRGLR
modifications: Atto594 (NHS ester; the UBXD1 proteins were labeled for anisotropy)
notes: also called UBX deletion mutant of UBXD1; not shown: GST, N-terminal, cleaved
B11: the Kd was found to be 18.6 ± 0.7 µM in the assay with p97-ΔC (1–766) and 26 ± 2 µM with p97-ΔD2-C (1–480).
